Test results taken from patent US20240327516A1 (Zymeworks, published 2024).
Where two headings read alike, the source gives them in different places.

B1: Recombinant CD3epsilon/delta Fc fusion protein (Sino Biological) (Fc fusion)
chain 1: DGNEEMGGITQTPYKVSISGTTVILTCPQYPGSEILWQHNDKNIGGDEDDKNIGSDEDHLSLKEFSELEQSGYYVCYPRGSKPEDANFYLYLRARVCENCMEMD
chain 2: FKIPIEELEDRVFVNCNTSITWVEGTVGTLLSDITRLDLGKRILDPRGIYRCNGTDIYKDKESTVQVHYRMCQSCVELDPATVA
notes: also called recombinant CD3 fusion protein

Tests used:
[1] = target: T1, v31805, MH6T-TriTAC benchmark construct [MSLN (VHH) x Alb (VHH) x CD3 (scFv)]; experiment: SPR, BioRad ProteOn XPR36, 25 C, CD3 epsilon/delta-Fc captured on anti-Fc chip
[2] = target: T1, v31805, MH6T-TriTAC benchmark construct …; experiment: SPR, BioRad ProteOn XPR36, 25 C, CD3 epsilon/delta-Fc captured on anti-Fc chip; value as printed, implausible for ka
[3] = target: T2, mesothelin (MSLN) on MSLN-expressing tumor cells (human, UniProt Q13421 296-598)
T2 sequence (Q13421 other isoform, or with tags, fused parts or gaps limits assumed): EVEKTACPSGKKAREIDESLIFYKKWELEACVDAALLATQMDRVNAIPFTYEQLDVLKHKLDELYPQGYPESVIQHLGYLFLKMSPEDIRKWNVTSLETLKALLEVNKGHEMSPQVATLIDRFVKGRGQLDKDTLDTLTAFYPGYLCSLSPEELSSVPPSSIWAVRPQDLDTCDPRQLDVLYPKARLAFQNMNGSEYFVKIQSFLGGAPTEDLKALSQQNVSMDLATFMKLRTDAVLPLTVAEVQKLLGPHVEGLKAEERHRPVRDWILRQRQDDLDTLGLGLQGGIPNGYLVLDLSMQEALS

[4] = target: T2, mesothelin (MSLN) on MSLN-expressing …; remark: listed apart in the source
[5] = target: T2, mesothelin (MSLN) on MSLN-expressing …; remark: listed apart in the source
[6] = target: T2, mesothelin (MSLN) on MSLN-expressing …; experiment: cell-based or functional assay
[7] = target: T2, mesothelin (MSLN) on MSLN-expressing …; experiment: cell-based or functional assay; remark: listed apart in the source
[8] = target: T3, MSLN (form in the assay not stated) (UniProt Q13421 296-580); experiment: method not stated; reference v29191
T3 sequence (Q13421 other isoform, or with tags, fused parts or gaps limits assumed): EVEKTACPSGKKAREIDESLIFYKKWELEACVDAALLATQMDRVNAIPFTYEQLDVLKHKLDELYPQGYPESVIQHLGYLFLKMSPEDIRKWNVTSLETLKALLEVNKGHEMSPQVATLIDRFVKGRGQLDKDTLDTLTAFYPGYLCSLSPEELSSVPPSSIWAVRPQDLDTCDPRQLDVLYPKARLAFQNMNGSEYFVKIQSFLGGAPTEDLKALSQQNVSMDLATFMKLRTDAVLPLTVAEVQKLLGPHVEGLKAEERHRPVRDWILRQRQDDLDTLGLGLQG

[9] = target: T3, MSLN (form in the assay not stated); experiment: method not stated; reference v31805
[10] = target: T3, MSLN (form in the assay not stated); experiment: method and antigen form not stated in Table 12
[11] = target: T4, CD3 on CD3+ Jurkat cells and primary human T cells (human, UniProt P07766 23-207); experiment: whole-cell ELISA on CD3+ Jurkat cells, apparent affinity
T4 construct: whole, on cells; also called native CD3; CD3ε

[12] = target: T4, CD3 on CD3+ Jurkat cells and primary …; experiment: flow cytometry on primary human T cells, apparent affinity
[13] = target: T4, CD3 on CD3+ Jurkat cells and primary …; experiment: cell ELISA on whole CD3+ Jurkat cells (HRP anti-human IgG Fc, A 450nm)
[14] = target: T5, Recombinant MSLN Fc fusion protein (R&D: 3265-MS) (UniProt Q13421 296-580); experiment: SPR; reference v31805
T5 construct: also called recombinant MSLN fusion protein

[15] = target: B1; experiment: SPR; reference v31805
[16] = target: T2, mesothelin (MSLN) on MSLN-expressing …; experiment: cell-based or functional assay; remark: listed apart in the source
[17] = target: T4, CD3 on CD3+ Jurkat cells and primary …; experiment: flow cytometry on primary human T cells; reference v29191
Target sequence in this assay (P07766 23-207): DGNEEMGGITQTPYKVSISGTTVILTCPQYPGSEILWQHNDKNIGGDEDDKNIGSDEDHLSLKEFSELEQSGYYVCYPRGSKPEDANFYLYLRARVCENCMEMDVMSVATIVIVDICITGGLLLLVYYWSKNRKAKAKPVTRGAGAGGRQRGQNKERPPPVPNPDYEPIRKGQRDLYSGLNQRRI

[18] = target: T4, CD3 on CD3+ Jurkat cells and primary …; experiment: flow cytometry on primary human T cells; reference v31805
Target sequence in this assay (P07766 23-207): as above

[19] = target: T2, mesothelin (MSLN) on MSLN-expressing …; experiment: whole-cell flow cytometry on OVCAR-3 cells, apparent affinity
[20] = target: T5, Recombinant MSLN Fc fusion protein …; experiment: SPR, BioRad ProteOn XPR36, 25 C, MSLN-Fc captured on anti-Fc chip
[21] = target: T5, Recombinant MSLN Fc fusion protein …; experiment: assay not given; matches Table 15 (SPR); reference v31805
[22] = target: B1; experiment: as above
[23] = target: T4, CD3 on CD3+ Jurkat cells and primary …; experiment: whole-cell flow cytometry on primary human T cells, apparent affinity
Target sequence in this assay (P07766 23-207): as above

[24] = target: B1; experiment: SPR, BioRad ProteOn XPR36, 25 C, CD3 epsilon/delta-Fc captured on anti-Fc chip
[25] = target: T2, mesothelin (MSLN) on MSLN-expressing …; experiment: flow cytometry on MSLN+ OVCAR-3 cells (Alexa Fluor 647 anti-IgG-Fc, MFI)
[26] = target: T4, CD3 on CD3+ Jurkat cells and primary …; experiment: flow cytometry on human pan T cells, CD4+ gate (Alexa Fluor 647 anti-IgG-Fc, MFI)
Target sequence in this assay (P07766 23-207): as above

[27] = target: T4, CD3 on CD3+ Jurkat cells and primary …; experiment: flow cytometry on human pan T cells, CD8+ gate (Alexa Fluor 647 anti-IgG-Fc, MFI)
Target sequence in this assay (P07766 23-207): as above

[28] = target: T4, CD3 on CD3+ Jurkat cells and primary …; experiment: flow cytometry on human pan T cells, CD4+ and CD8+ cells together (Alexa Fluor 647 anti-IgG-Fc, MFI)
Target sequence in this assay (P07766 23-207): as above

[29] = target: T2, mesothelin (MSLN) on MSLN-expressing …; experiment: assay not given; matches Table 16 (OVCAR-3 cells); reference v32523

Binder: B1
- Kd [1]: 0.75 nM
- koff [1]: 0.00379 s⁻¹
- kon [2]: 5.04e+06 M⁻¹ s⁻¹

B2: v21812, trivalent and bispecific antibody construct [MSLN (2 scFv) x CD3 (1 Fab)] (bispecific antibody, human IgG1, lambda, L234A L235A)
heavy 1: QVQLVQSGAEVKKPGASVKVSCKASGYSFTGYTMNWVRQAPGQGLEWMGLITPYNGASSYNQKFRGKATMTVDTSTSTVYMELSSLRSEDTAVYYCARGGYDGRGFDYWGQGTLVTVSSGGGGSGGGGSGGGGSDIQMTQSPSSLSASVGDRVTITCSASSSVSYMHWYQQKSGKAPKLLIYDTSKLASGVPSRFSGSGSGTDFTLTISSLQPEDFATYYCQQWSGYPLTFGQGTKLEIKAAEPKSSDKTHTCPPCPAPEAAGGPSVFLFPPKPKDTLMISRTPEVTCVVVSVSHEDPEVKFNWYVDGVEVHNAKTKPREEQYNSTYRVVSVLTVLHQDWLNGKEYKCKVSNKALPAPIEKTISKAKGQPREPQVYVLPPSRDELTKNQVSLLCLVKGFYPSDIAVEWESNGQPENNYLTWPPVLDSDGSFFLYSKLTVDKSRWQQGNVFSCSVMHEALHNHYTQKSLSLSPG
heavy 2: not shown
light: NFMLTQPHSVSESPGKTVTISCKRNTGNIGSNYVNWYQQHEGSSPTTIIYRNDKRPDGVSDRFSGSIDRSSKSASLTISNLKTEDEADYFCQSYSSGFIFGGGTKLTVLGQPKAAPSVTLFPPSSEELQANKATLVCLISDFYPGAVTVAWKADSSPVKAGVETTTPSKQSNNKYAASSYLSLTPEQWKSHRSYSCQVTHEGSTVEKTVAPTECS
notes: also called parental construct of v32523; dual scFv trivalent variant
- Kd [3]: ~0.47 nM
- EC50 [4]: 0.4 nM
- EC50 (read off the curve) [5]: ~0.5 nM
- maximum killing of BxPC3 cells [6]: 75%
- IC50 of T cell-dependent cytotoxicity on OVCAR-3 cells (pan T cells, E:T 5:1, 72 h) [7]: 0.05 pM
- fold lower binding affinity vs v29191 [8]: ~45 fold
- fold lower affinity vs v31805 [9]: ~20 fold
- Affinity to MSln [10]: 0.9 nM
- EC50 [11]: 17.7 nM
- EC50 [12]: 58.8 nM
- EC50 (read off the curve) [13]: ~9 nM

B3: v32523, trivalent and bispecific antibody construct [MSLN (2 scFv) x CD3 (1 Fab)] (bispecific antibody, human IgG1, lambda, L234A L235A)
heavy 1: not shown
heavy 2: DIQMTQSPSSLSASVGDRVTITCSASSSVSYMHWYQQKSGKAPKLLIYDTSKLASGVPSRFSGSGSGTDFTLTISSLQPEDFATYYCQQWSGYPLTFGQGTKLEIKGGGGSGGGGSGGGGSGGGGSQVQLVQSGAEVKKPGASVKVSCKASGYSFTGYTMNWVRQAPGQGLEWMGLITPYNGASSYNQKFRGKATMTVDTSTSTVYMELSSLRSEDTAVYYCARGGYDGRGFDYWGQGTLVTVSSAAEPKSSDKTHTCPPCPAPEAAGGPSVFLFPPKPKDTLMISRTPEVTCVVVSVSHEDPEVKFNWYVDGVEVHNAKTKPREEQYNSTYRVVSVLTVLHQDWLNGKEYKCKVSNKALPAPIEKTISKAKGQPREPQVYVLPPSRDELTKNQVSLLCLVKGFYPSDIAVEWESNGQPENNYLTWPPVLDSDGSFFLYSKLTVDKSRWQQGNVFSCSVMHEALHNHYTQKSLSLSPG
light: NFMLTQPHSVSESPGKTVTISCKRNTGNIGSNYVNWYQQHEGSSPTTIIYRNDKRPDGVSDRFSGSIDRSSKSASLTISNLKTEDEADYFCQSYSSGFIFGGGTKLTVLGQPKAAPSVTLFPPSSEELQANKATLVCLISDFYPGAVTVAWKADSSPVKAGVETTTPSKQSNNKYAASSYLSLTPEQWKSHRSYSCQVTHEGSTVEKTVAPTECS
notes: also called construct v32523; stability engineered construct
- fold lower affinity vs v31805 [14]: 32 fold
- fold lower affinity vs v31805 [15]: 53 fold
- IC50 of T cell-dependent cytotoxicity on HCT116 cells (pan T cells, E:T 5:1, 72 h) [16]: 1.1 pM
- fold lower apparent affinity vs v29191 [17]: ~2.7 fold
- fold lower apparent affinity vs v31805 [18]: ~8.6 fold
- EC50 [19]: 2.8 nM
- Kd [20]: 1.01 nM
- koff [20]: 0.000719 s⁻¹
- kon [20]: 714000 M⁻¹ s⁻¹
- fold lower affinity vs v31805 [21]: ~30 fold
- fold lower affinity vs v31805 [22]: ~50 fold
- EC50 [23]: 50.5 nM
- Kd [24]: 40.1 nM
- koff [24]: 0.0112 s⁻¹
- kon [24]: 279000 M⁻¹ s⁻¹
- EC50 (read off the curve) [25]: ~3 nM
- EC50 (read off the curve) [26]: ~60 nM
- EC50 (read off the curve) [27]: ~80 nM
- EC50 (read off the curve) [28]: ~60 nM

B4: v29191, 2+1 Fab^3 TCB benchmark construct [MSLN (2 Fab) x CD3 (1 Fab)] (bispecific antibody, human IgG1, kappa, L234A L235A)
heavy 1: not shown
heavy 2: QVQLVQSGAEVKKPGASVKVSCKASGYSFTGYTMNWVRQAPGQGLEWMGLITPYNGASSYNQKFRGKATMTVDTSTSTVYMELSSLRSEDTAVYYCARGGYDGRGFDYWGQGTLVTVSSASTKGPSVFPLAPSSKSTSGGTAALGCLVEDYFPEPVTVSWNSGALTSGVHTFPAVLQSSGLYSLSSVVTVPSSSLGTQTYICNVNHKPSNTKVDEKVEPKSCDKTHTCPPCPAPEAAGGPSVFLFPPKPKDTLMISRTPEVTCVVVDVSHEDPEVKFNWYVDGVEVHNAKTKPREEQYNSTYRVVSVLTVLHQDWLNGKEYKCKVSNKALGAPIEKTISKAKGQPREPQVCTLPPSRDELTKNQVSLSCAVKGFYPSDIAVEWESNGQPENNYKTTPPVLDSDGSFFLVSKLTVDKSRWQQGNVFSCSVMHEALHNHYTQKSLSLSPG
light 1: EVQLLESGGGLVQPGGSLRLSCAASGFTFSTYAMNWVRQAPGKGLEWVSRIRSKYNNYATYYADSVKGRFTISRDDSKNTLYLQMNSLRAEDTAVYYCVRHGNFGNSYVSWFAYWGQGTLVTVSSASVAAPSVFIFPPSDEQLKSGTASVVCLLNNFYPREAKVQWKVDNALQSGNSQESVTEQDSKDSTYSLSSTLTLSKADYEKHKVYACEVTHQGLSSPVTKSFNRGEC
light 2: DIQMTQSPSSLSASVGDRVTITCSASSSVSYMHWYQQKSGKAPKLLIYDTSKLASGVPSRFSGSGSGTDFTLTISSLQPEDFATYYCQQWSKHPLTFGQGTKLEIKRTVAAPSVFIFPPSDRKLKSGTASVVCLLNNFYPREAKVQWKVDNALQSGNSQESVTEQDSKDSTYSLSSTLTLSKADYEKHKVYACEVTHQGLSSPVTKSFNRGEC
notes: also called Fab^3 benchmark
- IC50 of T cell-dependent cytotoxicity on OVCAR-3 cells (pan T cells, E:T 5:1, 72 h) [7]: 0.89 pM
- Affinity to MSln [10]: 0.02 nM
- EC50 [19]: 0.4 nM
- EC50 [23]: 18.7 nM
- fold higher relative affinity vs v32523 [29]: 7 fold
- EC50 (read off the curve) [26]: ~20 nM
- EC50 (read off the curve) [27]: ~30 nM
- EC50 (read off the curve) [28]: ~20 nM
